# According to patent US20220340642A1 (Kyowa Kirin, published 2022):
# T1: DcR3 FL-Fc (R&D Systems, Inc.) (human, UniProt O95407 30-300)
# T1 construct: Bought product made in insect cells; also called DcR3-Fc (R&D Systems, Inc.); DcR3 FL-Fc (IgG1)
# T1 sequence: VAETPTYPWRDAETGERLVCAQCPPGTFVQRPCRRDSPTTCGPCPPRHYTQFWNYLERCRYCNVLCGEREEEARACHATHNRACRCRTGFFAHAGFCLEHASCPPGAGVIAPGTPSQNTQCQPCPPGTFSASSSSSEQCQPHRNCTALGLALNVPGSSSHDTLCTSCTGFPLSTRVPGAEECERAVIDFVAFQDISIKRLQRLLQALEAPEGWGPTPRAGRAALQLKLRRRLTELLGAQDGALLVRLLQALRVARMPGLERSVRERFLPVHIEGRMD
# T2: soluble recombinant of human TL1A (His6, GS linker, Leu72-Leu251) (UniProt O95150 72-251)
# T2 chain: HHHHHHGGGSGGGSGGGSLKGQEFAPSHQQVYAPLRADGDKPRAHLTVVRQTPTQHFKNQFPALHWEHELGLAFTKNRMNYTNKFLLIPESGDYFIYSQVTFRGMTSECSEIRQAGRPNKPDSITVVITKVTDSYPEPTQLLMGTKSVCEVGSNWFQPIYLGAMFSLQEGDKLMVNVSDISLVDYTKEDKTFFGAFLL
# T3: soluble recombinant of human LIGHT (His10, GS linker, Asp74-Val240)
# T3 chain: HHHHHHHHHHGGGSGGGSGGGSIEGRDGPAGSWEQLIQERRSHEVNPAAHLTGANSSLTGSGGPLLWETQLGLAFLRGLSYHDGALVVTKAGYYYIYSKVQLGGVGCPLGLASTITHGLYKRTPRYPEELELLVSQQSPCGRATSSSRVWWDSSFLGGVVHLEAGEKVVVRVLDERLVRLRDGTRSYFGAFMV
# T4: soluble recombinant of human FasL (His6, Pro134-Leu281) (UniProt P48023 134-281)
# T4 chain: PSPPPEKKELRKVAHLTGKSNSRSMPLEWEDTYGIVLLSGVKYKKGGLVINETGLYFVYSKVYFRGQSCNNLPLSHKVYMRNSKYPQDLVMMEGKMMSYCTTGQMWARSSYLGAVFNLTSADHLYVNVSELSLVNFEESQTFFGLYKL
# Biological target: T1, DcR3 FL-Fc (R&D Systems, Inc.)
# Assay: SPR, binder captured
# Protocol: Regarding each of the various wild-type DcR3 controls and the DcR3 variants shown in Table 9, the binding activities to DcR3 ligands (LIGHT, TL1A, FasL) were analyzed by the SPR method using BIAcore T-100 (GE Healthcare). As the buffer, HBS-EP+Buffer was used.
# After 10,000 RU of anti-human antibodies were immobilized to Series S Sensor Chip CM5 using Human Antibody Capture Kit (GE Healthcare), various wild-type DcR3 controls and DcR3 variants were injected at the flow rate of 10 μL/min for 30 seconds and captured. Meanwhile, the buffer containing no protein was injected into reference flow cells. Thereafter, as an analyte, DcR3 ligands of a human, a cynomolgus monkey or a mouse diluted to 0.08 to 80 nmol/L were injected at 10 μL/min for 2 minutes to monitor the binding, and subsequently the buffer was injected for 3 minutes to monitor dissociation. Then, 3 mol/L magnesium chloride was injected at 20 μL/min for 1 minute to perform a regeneration reaction. […] As a result of measurement, except for mouse LIGHT for which a trimer could not be produced, it was confirmed that various wild-type DcR3 controls and DcR3 variants bind to each DcR3 ligand of a human, a cynomolgus monkey or a mouse.
Binder,Kd,koff,kon,binding result
"soluble recombinant of human LIGHT (His10, GS linker, Asp74-Val240) (ligand) HHHHHHHHHHGGGSGGGSGGGSIEGRDGPAGSWEQLIQERRSHEVNPAAHLTGANSSLTGSGGPLLWETQLGLAFLRGLSYHDGALVVTKAGYYYIYSKVQLGGVGCPLGLASTITHGLYKRTPRYPEELELLVSQQSPCGRATSSSRVWWDSSFLGGVVHLEAGEKVVVRVLDERLVRLRDGTRSYFGAFMV",1.1 nM,0.0004 s⁻¹,380000 M⁻¹ s⁻¹,–
"soluble recombinant of cynomolgus monkey LIGHT (His10, GS linker, Asp74-Val240) (ligand) HHHHHHHHHHGGGSGGGSGGGSIEGRDGHGGSWEQLIQERRSHQNNPAAHLTGANSSLTGSGGPLLWETQLGLAFLRGLDYHDGALVANKAGYYYIYSKVQLGGVGCPLGLASTITHGLYKRTPRYPEELELLVSQQSPCGRATSNSRVWWDSSFLGGVVHLEVGEEVVVRVLDERLVRLRDGTRSYFGAFMV",1.2 nM,0.00038 s⁻¹,310000 M⁻¹ s⁻¹,–
"soluble recombinant of mouse LIGHT (His10, GS linker, Asp72-Val239) (ligand) HHHHHHHHHHGGGSGGGSGGGSIEGRDGGKGSWEKLIQDQRSHQANPAAHLTGANASLIGIGGPLLWETRLGLAFLRGLTYHDGALVTMEPGYYYVYSKVQLSGVGCPQGLANGLPITHGLYKRTSRYPKELELLVSRRSPCGRANSSRVWWDSSFLGGVVHLEAGEEVVVRVPGNRLVRPRDGTRSYFGAFMV",–,–,–,no binding (tested: 0.08 to 80 nmol/L)
"soluble recombinant of mouse FasL (His6, Pro132-Leu279) (ligand) HHHHHHPSTPSEKKEPRSVAHLTGNPHSRSIPLEWEDTYGTALISGVKYKKGGLVINETGLYFVYSKVYFRGQSCNNQPLNHKVYMRNSKYPEDLVLMEEKRLNYCTTGQIWAHSSYLGAVFNLTSADHLYVNISQLSLINFEESKTFFGLYKL",65 nM,0.0097 s⁻¹,150000 M⁻¹ s⁻¹,–
"soluble recombinant of human FasL (His6, Pro134-Leu281) (ligand) PSPPPEKKELRKVAHLTGKSNSRSMPLEWEDTYGIVLLSGVKYKKGGLVINETGLYFVYSKVYFRGQSCNNLPLSHKVYMRNSKYPQDLVMMEGKMMSYCTTGQMWARSSYLGAVFNLTSADHLYVNVSELSLVNFEESQTFFGLYKL",1.3 nM,0.0004 s⁻¹,310000 M⁻¹ s⁻¹,–
"soluble recombinant of cynomolgus monkey FasL (His6, Pro133-Leu280) (ligand, also called His6-cynoFasL) PSPPPEKKEQRKVAHLTGKPNSRSMPLEWEDTYGIVLLSGVKYKKGGLVINETGLYFVYSKVYFRGQSCTNLPLSHKVYMRNSKYPQDLVMMEGKMMSYCTTGQMWAHSSYLGAVFNLTSADHLYVNVSELSLVNFEESQTFFGLYKL",1.1 nM,0.00033 s⁻¹,300000 M⁻¹ s⁻¹,–

# More lines, now with the values ahead:
Kd,koff,kon,binding result,Binder
0.58 nM,0.00049 s⁻¹,840000 M⁻¹ s⁻¹,–,"soluble recombinant of mouse TL1A (His6, GS linker, Ile94-Leu270) (ligand) HHHHHHGGGSGGGSGGGSITEERSEPSPQQVYSPPRGKPRAHLTIKKQTPAPHLKNQLSALHWEHDLGMAFTKNGMKYINKSLVIPESGDYFIYSQITFRGTTSVCGDISRGRRPNKPDSITMVITKVADSYPEPARLLTGSKSVCEISNNWFQSLYLGATFSLEEGDRLMVNVSDISLVDYTKEDKTFFGAFLL"
0.89 nM,0.00035 s⁻¹,390000 M⁻¹ s⁻¹,–,"soluble recombinant of human TL1A (His6, GS linker, Leu72-Leu251) (ligand, also called His6-TL1A; hTL1A) HHHHHHGGGSGGGSGGGSLKGQEFAPSHQQVYAPLRADGDKPRAHLTVVRQTPTQHFKNQFPALHWEHELGLAFTKNRMNYTNKFLLIPESGDYFIYSQVTFRGMTSECSEIRQAGRPNKPDSITVVITKVTDSYPEPTQLLMGTKSVCEVGSNWFQPIYLGAMFSLQEGDKLMVNVSDISLVDYTKEDKTFFGAFLL"
0.92 nM,0.00035 s⁻¹,380000 M⁻¹ s⁻¹,–,"soluble recombinant of cynomolgus monkey TL1A (His6, GS linker, Leu72-Leu251) (ligand, also called His6-cynoTL1A) HHHHHHGGGSGGGSGGGSLKGQEFAPSHQQVYAPLRADGDKPRAHLTVVRQTPTQHLKNQFPALHWEHELGLAFTKNRMNYTNKFLLIPESGDYFVYSQVTFRGMTSECSEIRQAGRPNKPDSITVVITKVTDSYPEPTQLLMGTKSVCEVGSNWFQPIYLGAMFSLQEGDKLMVNVSDISLVDYTKEDKTFFGAFLL"

# Biological target: T2, soluble recombinant of human TL1A …
# Assay: BIAcore SPR
# Procedure, shortened: (§1)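 On a BIAcore T-100 or T-200 instrument (GE Healthcare), with HBS-EP+ Buffer, surface plasmon resonance measured binding of each test molecule to soluble recombinant His-tagged LIGHT, TL1A or FasL. These proteins were of human or cynomolgus monkey origin. The dissociation constant (Kd, nM) was derived from the resulting data.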
row,Kd,Binder
1,0.21 nM,"DcR3 FL-Fc (R&D Systems, Inc.) (Fc fusion) VAETPTYPWRDAETGERLVCAQCPPGTFVQRPCRRDSPTTCGPCPPRHYTQFWNYLERCRYCNVLCGEREEEARACHATHNRACRCRTGFFAHAGFCLEHASCPPGAGVIAPGTPSQNTQCQPCPPGTFSASSSSSEQCQPHRNCTALGLALNVPGSSSHDTLCTSCTGFPLSTRVPGAEECERAVIDFVAFQDISIKRLQRLLQALEAPEGWGPTPRAGRAALQLKLRRRLTELLGAQDGALLVRLLQALRVARMPGLERSVRERFLPVHIEGRMD"

# Biological target: T3, soluble recombinant of human LIGHT …
# Assay: BIAcore SPR
# Procedure, shortened: as §1
row,Kd,Binder
1,0.21 nM,"DcR3 FL-Fc (R&D Systems, Inc.) (Fc fusion) VAETPTYPWRDAETGERLVCAQCPPGTFVQRPCRRDSPTTCGPCPPRHYTQFWNYLERCRYCNVLCGEREEEARACHATHNRACRCRTGFFAHAGFCLEHASCPPGAGVIAPGTPSQNTQCQPCPPGTFSASSSSSEQCQPHRNCTALGLALNVPGSSSHDTLCTSCTGFPLSTRVPGAEECERAVIDFVAFQDISIKRLQRLLQALEAPEGWGPTPRAGRAALQLKLRRRLTELLGAQDGALLVRLLQALRVARMPGLERSVRERFLPVHIEGRMD"

# Biological target: T4, soluble recombinant of human FasL …
# Assay: BIAcore SPR
# Procedure, shortened: as §1
row,Kd,Binder
1,0.93 nM,"DcR3 FL-Fc (R&D Systems, Inc.) (Fc fusion) VAETPTYPWRDAETGERLVCAQCPPGTFVQRPCRRDSPTTCGPCPPRHYTQFWNYLERCRYCNVLCGEREEEARACHATHNRACRCRTGFFAHAGFCLEHASCPPGAGVIAPGTPSQNTQCQPCPPGTFSASSSSSEQCQPHRNCTALGLALNVPGSSSHDTLCTSCTGFPLSTRVPGAEECERAVIDFVAFQDISIKRLQRLLQALEAPEGWGPTPRAGRAALQLKLRRRLTELLGAQDGALLVRLLQALRVARMPGLERSVRERFLPVHIEGRMD"
